We go through 7 molecules from patent US10822593B2, “Alcohol dehydrogenase mutant and application thereof in synthesis of diaryl chiral alcohols” (priority 2018, dated 2020).

What all share (type): biochemical
In data set [1] the target is alcohol dehydrogenase KpADH, wild type, SEQ ID No. 2 (Vanderwaltozyma polyspora, UniProt A7TM80). Put plainly: Kinetic analysis, reduction of CPMK by wild type KpADH. As to conditions: substrate CPMK, coenzyme NADPH, pH 7.0, 30° C. The procedure: (§1) Adopting a total reaction system of 200 μL, including: 1.0 mM NADPH, 1.0 mM substrate CPMK and sodium phosphate buffer (PBS, 100 mM, pH 7.0), fully and evenly mixing, maintaining at 30° C. for 2 min, adding an appropriate amount of enzyme solution, and detecting the change in light absorption at 340 nm.
(§2) The enzyme activity was calculated by the following formula: […]
(§3) in the formula, EW is the change in absorbance at 340 nm in 1 min; V is the volume of a reaction solution in mL; 6220 is the molar extinction coefficient of NADPH in L/(mol·cm); and 1 is the optical path distance in cm. One activity unit (U) corresponds to the amount of enzyme required to catalyze the oxidation of 1 μmol NADPH per minute under the above conditions.
(§4) A column used for purification was a nickel affinity column HisTrap FF crude, and purification was achieved through affinity chromatography using a histidine tag on recombinant protein. The nickel column was equilibrated with a solution A first, a crude enzyme solution was loaded, a penetrating peak was further eluted off using the solution A, and after equilibrium, a solution B (20 mM sodium phosphate, 500 mM NaCl, and 1000 mM imidazole, pH 7.4) was used for gradient elution to elute off the recombinant protein bound to the nickel column, so as to obtain the recombinant alcohol dehydrogenase mutant. The purified protein was subjected to activity measurement (CPMK as substrate, and NADPH as coenzyme) and SDS-PAGE analysis. […] The purified alcohol dehydrogenase protein was then replaced into a Tris-HCl (100 mM, pH 7.0) buffer using a Hi Trap Desalting column (GE Healthcare).
(§5) The activity of KpADH at different substrate concentrations and coenzyme concentrations was determined, and a double reciprocal curve was made based on the reciprocal of activity and substrate concentration to calculate kinetic parameters.

In data set [2] the test system is O=C(c1ccc(Cl)cc1)c1ccccn1. Put plainly: Kinetic analysis, reduction of CPMK by mutant M1. As to conditions: other: substrate CPMK, coenzyme NADPH, pH 7.0, 30° C. As to the method:
In an embodiment of the present disclosure, the mutant includes the substitution of valine for serine at position 196 of the alcohol dehydrogenase with the amino acid sequence shown in SEQ ID No. 2, which is named M1.
as §1, §2, §3, §4, §5

Data set [3] relates to O=C(c1ccc(Cl)cc1)c1ccccn1. In words: Kinetic analysis, reduction of CPMK by mutant M2. Particulars: other: substrate CPMK, coenzyme NADPH, pH 7.0, 30° C. The procedure: In an embodiment of the present disclosure, the mutant includes the substitution of tryptophan for serine at position 196 of the alcohol dehydrogenase with the amino acid sequence shown in SEQ ID No. 2, which is named M2.
as §1, §2, §3, §4, §5

The subject of data set [4] is O=C(c1ccc(Cl)cc1)c1ccccn1. Put plainly: Kinetic analysis, reduction of CPMK by mutant M3. Particulars: other: substrate CPMK, coenzyme NADPH, pH 7.0, 30° C. As to the method:
In an embodiment of the present disclosure, the mutant includes the substitution of proline for serine at position 196 of the alcohol dehydrogenase with the amino acid sequence shown in SEQ ID No. 2, which is named M3.
as §1, §2, §3, §4, §5

The subject of data set [5] is O=C(c1ccc(Cl)cc1)c1ccccn1. Put plainly: Kinetic analysis, reduction of CPMK by mutant M4. Particulars: other: substrate CPMK, coenzyme NADPH, pH 7.0, 30° C. As to the method: In an embodiment of the present disclosure, the mutant includes the substitution of glycine for serine at position 196 of the alcohol dehydrogenase with the amino acid sequence shown in SEQ ID No. 2, which is named M4.
as §1, §2, §3, §4, §5

Data set [6] has as its system O=C(c1ccc(Cl)cc1)c1ccccn1. Put plainly: Kinetic analysis, reduction of CPMK by mutant M5. As to conditions: other: substrate CPMK, coenzyme NADPH, pH 7.0, 30° C. As to the method: In an embodiment of the present disclosure, the mutant includes the substitution of glycine for serine at position 196 of the alcohol dehydrogenase with the amino acid sequence shown in SEQ ID No. 2, and the substitution of valine for phenylalanine at position 161, which is named M5.
as §1, §2, §3, §4, §5

The subject of data set [7] is O=C(c1ccc(Cl)cc1)c1ccccn1. Put plainly: Kinetic analysis, reduction of CPMK by wild type KpADH. Particulars: other: substrate CPMK, coenzyme NADPH, pH 7.0, 30° C. As to the method: as §1, §2, §3, §4, §5

As to `O=C(c1ccc(Cl)cc1)c1ccccn1` [CPMK, (4-chlorophenyl)-(pyridin-2-yl)-methanone], in data set [1], the Kcat/Km is 28900 M⁻¹ s⁻¹.
The term Km denotes the concentration of substrate that gives half-maximal velocity. Broadly, the Vmax is the top rate of the reaction or transport when substrate is in excess. As usually defined, the kcat is the number of substrate molecules converted per active site and unit of time at saturation. Usually kcat/Km stands for the second-order rate constant that governs catalysis at low substrate concentration. Regarding “alcohol dehydrogenase KpADH (SEQ ID No. 2) mutant M1, S196V (Vanderwaltozyma polyspora DSM 70294; S196V)”, in data set [2], the Km stood at 720 µM, the Vmax turned out to be 21.3 µmol/min/mg, the kcat is 17 s⁻¹ and the kcat/Km amounted to 23600 M⁻¹ s⁻¹.
For “alcohol dehydrogenase KpADH (SEQ ID No. 2) mutant M2, S196W (Vanderwaltozyma polyspora DSM 70294; S196W)”, in data set [3], the Km came out at 702 µM, the Vmax turned out to be 21.3 µmol/min/mg, the kcat came out at 14.2 s⁻¹ and the kcat/Km was found to be 20300 M⁻¹ s⁻¹.
In the case of “alcohol dehydrogenase KpADH (SEQ ID No. 2) mutant M3, S196P (Vanderwaltozyma polyspora DSM 70294; S196P)”, in data set [4], the Michaelis-Menten constant (Km) turned out to be 604 µM, the Vmax came to 22.3 µmol/min/mg, the kcat amounted to 14.8 s⁻¹ and the specificity constant (kcat/Km) stood at 24600 M⁻¹ s⁻¹.
For “alcohol dehydrogenase KpADH (SEQ ID No. 2) mutant M4, S196G (Vanderwaltozyma polyspora DSM 70294; S196G)”, in data set [5], the Km is 730 µM, the Vmax is 26.5 µmol/min/mg, the kcat was determined as 17.6 s⁻¹ and the kcat/Km came to 24100 M⁻¹ s⁻¹.
With “alcohol dehydrogenase KpADH (SEQ ID No. 2) mutant M5, S196G/F161V (Vanderwaltozyma polyspora DSM 70294; F161V/S196G)”, in data set [6], the Km amounted to 690 µM, the Vmax was found to be 17.7 µmol/min/mg, the catalytic constant (kcat) came to 11.8 s⁻¹ and the kcat/Km amounted to 17100 M⁻¹ s⁻¹.
Turning to “alcohol dehydrogenase KpADH, wild type, SEQ ID No. 2 (Vanderwaltozyma polyspora DSM 70294)”, in data set [7], the Km is 410 µM, the Vmax was found to be 17.9 µmol/min/mg, the kcat was determined as 11.8 s⁻¹ and the kcat/Km worked out at 28900 M⁻¹ s⁻¹.
